# Data: patent publication US20200115702A1
# Target: BAFF-Fc (Sino Biological) (human) (UniProt Q9Y275)
# Assay: cell-based or functional assay
# UniProt Q9Y275, sequence (Q9Y275 134-285): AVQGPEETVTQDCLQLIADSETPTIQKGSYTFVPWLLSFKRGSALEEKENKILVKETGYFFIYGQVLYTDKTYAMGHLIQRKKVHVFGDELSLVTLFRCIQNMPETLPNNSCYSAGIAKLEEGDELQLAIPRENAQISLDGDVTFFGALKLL
substance,measurement,value
"endogenous BAFF receptor, BR3 (from UniProt Q96RJ3 1-78)","IC50, inhibition of BAFF bioactivity in the mouse splenocyte assay",121 nM
